The values below come from patent US20220064332A1 (INSERM INSTITUT NATIONAL DE LA SANT ET DE LA RECHERCHE M …, published 2022).

Experiment [1] concerns the target T1, human 52-kDa pro-cath-D secreted from MDA-MB-231 cells (human, UniProt P07339 21-412).
T1 construct: domain: 52-kDa pro-cath-D; Captured from conditioned medium by the M2E8 antibody in the sandwich ELISA; also called secreted human 52-kDa pro-cath-D
The experiment is described as follows: sandwich ELISA: M2E8 capture of pro-cath-D from MDA-MB-231 conditioned medium, serial dilutions of IgG, anti-human Fc-HRP. The procedure: Cells were cultured in DMEM with 10% fetal calf serum (FCS, GibcoBRL). To produce conditioned medium, cells were grown to 90% confluence in DMEM medium with 10% FCS, and conditioned medium was centrifuged at 800×g for 10 min. For sandwich ELISA, 96-well plates were coated with M2E8 antibody in PBS (500 ng/well) at 4° C. overnight. After blocking non-specific sites with PBST/1% BSA, conditioned medium was added at 4° C. for 2 h. […] Cath-D was quantified in TNBC cytosols by sandwich ELISA, as described above, after coating with the D7E3 antibody in PBS (200 ng/well) and with the M1G8 antibody conjugated to HRP (1/80), and using recombinant pro-cath-D (1.25-15 ng/ml) for reference (6). TNBC cytosols were previously prepared and frozen (25). GST-cath-D fusion proteins were produced in the E. coli B strain BL21 as described (9).
A general note: ELISA stands for enzyme-linked immunosorbent assay.

The target of experiment [2] is T2, 4-kDa GST-cath-D pro-fragment (UniProt P07339 21-64, limits assumed).
T2 construct: domain: 4-kDa pro-fragment; Produced in E. coli BL21
T2 chain (looked up): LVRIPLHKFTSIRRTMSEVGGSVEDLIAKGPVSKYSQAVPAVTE
The experiment is described as follows: immunoprecipitation of GST-cath-D fusion fragments.

The target of experiment [3] is T3, 14-kDa light chain GSTcath-D (UniProt P07339 65-162, limits assumed).
T3 construct: domain: 14-kDa light chain; Produced in E. coli BL21
T3 sequence (P07339 65-162 limits assumed): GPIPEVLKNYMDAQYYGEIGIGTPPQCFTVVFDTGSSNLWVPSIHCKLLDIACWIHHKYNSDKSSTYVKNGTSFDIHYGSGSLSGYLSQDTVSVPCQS
The experiment is described as follows: immunoprecipitation of GST-cath-D fusion fragments.

B1: anti-cath-D antibody E2 (fully human IgG1λ) (antibody, V domains shown)
VH: EVQLVESGGSLVKPGGSLRLSCAASGFTFSNSYMNWVRQAPGKGLEWISYISGSSRYISYADFVKGRFTISRDNATNSLYLQMNSLRAEDTAVYYCVRSSNSYFGGGMDVWGRGTLVTVSS
VL: QSVLTQPASVSGSPGQSITISCAGTSSDVGGSYGVSWYQQHPGKAPKLMIYGDSYRPSGVSNRFSGSKSGNTASLTISGLQAEDEADYYCSSYTNYSTRVFGGGTKLAVL
For orientation: EC50 means the concentration at which the effect is half-maximal. The low end stands for a more potent agent, the high end for a less potent agent. For B1, the EC50 in experiment [1] was found to be 1.2 nM. Further, the binding result in experiment [2] and in experiment [3] was “no binding” throughout.
